In PMC8017925, “Structural basis for differential recognition of phosphohistidine-containing peptides by 1-pHis and 3-pHis monoclonal antibodies” (Proceedings of the National Academy of Sciences of the …, 2021):

Tested on: SCS pHis peptide
Experiment: BLI of pHis Fabs with phosphorylated SCS peptide
Type: binding
Details: GpHAGAI motif
Protocol: Next, we turned to further analyze the peptide selectivity using BLI experiments. Nine amino acid peptide sequences from proteins known to undergo histidine phosphorylation were selected and synthesized (SI Appendix, Table S2). The biotinylated peptides ACLY, NM23, SCS, and Common-His were chemically phosphorylated using phosphoramidate (8 h at 23 °C), and affinity-purified using immobilized 1-pHis IgGs or 3-pHis IgGs, as described above. BLI signal intensity was used to assess peptide binding to the Fabs. […]
The binding kinetics of pHis Fabs with the peptides (pTza and pHis) were evaluated with an Octet RED96e (FortéBio). […] The biotinylated pTza peptides or pHis peptides (20 nM) with and without phosphoramidate treatment were coated onto these streptavidin biosensors and analyzed for their binding to varying concentrations of the pHis Fabs with an association time of 120 s and dissociation time of 200 s. […] The data were analyzed using the Octet software (FortéBio) and the rates of association and dissociation were obtained by global fitting data to the 1:1 Langmuir interaction model. […]
1H NMR of ACLYana peptide. A mixture of 5 mM ACLYana peptide and 250 mM phosphoramidate in 20 mM d18-Hepes, pH 8.0, 50 mM NaCl in D2O was incubated at 23 °C and monitored over the course of 29 h. […]

B1: SC44-8: Fab of rabbit 3-pHis-specific monoclonal antibody with proclivity for GpHAGA motif (antibody, V domains shown)
VH: QSVKESGRGLVQPGGSLTLTCTASGFSIDSYGFSWVRQAPGKGLEHIGYLTAGGRAFYASWAKSRSTITRNTNENTVTLKMTSLTAADTATYFCAKLGSGNPVAIWGPGTLVTVSS
VL: QVLTQTPSFTSAAVGGTVTINCQSSQSVWRNKNLAWYQQKPGQPPKRLIYAIATLDSGVPSRFSGSGSGTQFTLTISDVQCDDAATYYCVGHYGSENDAYYAFGGGTEVVVK
In the case of B1, the “BLI signal with SCS peptide” value is reported as 0.5 nm.
